# T1: cynomolgus monkey BTLA on cells (stably transfected 293c18 clone 1G5); cynomolgus peripheral blood T and B … (cynomolgus monkey, UniProt A0A2K5W7M7 31-289)
# T1 construct: whole, on cells; also called cynomolgus monkey BTLA 293c18 cells
# T1 sequence: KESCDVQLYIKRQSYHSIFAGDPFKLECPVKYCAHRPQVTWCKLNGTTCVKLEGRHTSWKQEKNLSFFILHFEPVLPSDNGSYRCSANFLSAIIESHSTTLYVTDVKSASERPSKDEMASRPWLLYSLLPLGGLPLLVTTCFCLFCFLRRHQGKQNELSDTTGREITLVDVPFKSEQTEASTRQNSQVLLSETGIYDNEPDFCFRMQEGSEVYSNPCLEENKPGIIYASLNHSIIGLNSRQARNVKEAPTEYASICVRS
# Legend:
# [1] = target: T1, cynomolgus monkey BTLA on cells (stably …); experiment: flow cytometry on cynomolgus monkey BTLA 293c18 cells, anti-human kappa-PE detection; both lots (APE10840.03 and APE10840.04); cynomolgus BTLA 293c18 cells
# Method: 293c18 cell clone 1E4 stably expressing human BTLA construct or clone 1G5 stably expressing cynomolgus monkey BTLA were harvested with Accutase solution (Millipore Sigma/Sigma-Aldrich) and washed once with Phosphate-Buffered Saline, 1% BSA. 293c18 cynomolgus monkey BTLA cells were loaded with the lipophilic carbocyanine dye, DiD (2 μM, 1,1′-dioctadecyl-3,3,3′,3′-tetramenthylindodicarbocyanine; ThermoFisher Scientific) by rocking gently for 10 minutes at room temperature. DiD-stained cells were washed in PBS, 1% BSA and equal amounts of human BTLA 293c18 cells and cynomolgus monkey BTLA 293c18-DiD-stained cells were mixed. Cells (2×10⁵ total cells/sample) were incubated with the indicated concentrations of purified 6G3 IgG4 (two production lots, APE10840.03 and APE10840.04 (H Chain SEQ ID NO: 144, L Chain SEQ ID NO: 174)) or human IgG4 isotype control antibody specific for hen egg lysozyme with gentle shaking for 10 minutes at 4° C. in FACS buffer (PBS, 1% BSA, 0.02% sodium azide). […] Cells were washed and resuspended in FACS buffer and analyzed for fluorescence on a BD FACSArray (BD Biosciences). DiD stained cells expressing cynomolgus monkey BTLA (FIG. 3) were analyzed for median fluorescence intensity (MFI) separately from cells expressing human BTLA (FIG. 3). […]
# [2] = target: T2, human BTLA on cells (stably transfected 293c18 cells; human peripheral blood T and B cells) (human, UniProt Q7Z6A9 31-289); experiment: flow cytometry (MFI DyL650) on gated CD4+ T cells of human PBMC, DyLight 650-labelled antibody, three-parameter fit [left panel (Naive CD4+ T cells]
# T2 construct: whole, on cells; the cells are named under assay; also called cell surface BTLA; full-length human BTLA
# Method: Human peripheral blood mononuclear cells (PBMCs) were isolated by Histopaque (Sigma-Aldrich) density-gradient centrifugation of normal donor blood obtained from the San Diego Blood Bank (San Diego, CA). PBMCs were washed and incubated at 2×10⁷ cells/ml in FACS buffer (PBS, 1% BSA, 0.02% sodium azide) with Human BD Fc Block (2.5 μg/1×10⁶ cells, BD Biosciences) and LIVE/DEAD® Fixable Yellow Dead Cell Stain (30 μl, ThermoFisher Scientific) for 10 minutes on ice. Cells were washed once in FACS buffer, resuspended in FACS buffer at 1×10⁷ cells/ml and the following phenotyping antibodies added: Alexa Fluor 488-anti-human CD3E clone SK7, Brilliant Violet 421-anti-human CD4 clone OKT4, Brilliant Violet 785-anti-human CD8 clone SK1, and Brilliant Violet 570-anti-human CD20 clone 2H7 (50 μl each; all from BioLegend, Inc.). […] Samples were washed twice in FACS buffer, resuspended in 150 μl/well FACS buffer, and analyzed for fluorescence on a NovoCyte Flow Cytometer (ACEA Biosciences, Inc.). Data were analyzed using NovoExpress Software (ACEA Biosciences, Inc.). Median fluorescence intensities of anti-BTLA or isotype staining on gated CD4⁺ T cells (FIG. 4), CD8⁺ T cells (FIG. 4), or CD20⁺ B cells (FIG. 4) were graphed and curves fit with log(agonist) vs. response (three parameters) least squares fit for EC₅₀ calculation in GraphPad Prism (GraphPad Software, Inc.).
binder,measurement,setting,value
"6G3 IgG4 anti-BTLA antibody (APE10840 / APE12839 / APE13308) (antibody, V domains shown, Humanized antibody from a mouse hybridoma, tested as human IgG4 (detected with anti-human kappa); Some assays used labelled lots (DyLight 650, AF647, biotin, DyL488); also called 6G3 antibody; APE10840.03) VH: QVQLVQSGAEVKKPGSSVKVSCKASGYVFSTSWMNWVRQAPGQGLEWMGRIYPGDADTNYVGKFKGRVTITADKSTTTAYMELSSLRSEDTAVYFCAKSGTFNFGNYRWYFDVWGKGTTVTVSS VL: AIQLTQSPSSLSASVGDRVTITCRVSENIYSHLAWYQQKPGKAPKLLIYAATNLALGVPSRFSGSGSGTDYTLTISSLQPEDFATYYCQLFWGPPLTFGGGTKVEIKR",EC50,[1],~2.3 nM
same,EC50,[2],2.44 nM

# Reference: patent US20230391872A1 (ANAPTYSBIO, published 2023)
